{"source": "paper PMC5672955", "origin": "cited, not measured here", "target": "RNA polymerase (Escherichia coli) (UniProt P0A7Z4)", "data": [{"substance": "UvrD (from UniProt P03018)", "values": [{"measurement": "Kd", "result": 35, "unit": "nM"}]}]}
